In IntAct's records for PubMed 21527715:

B1: Complement receptor type 2 (Homo sapiens), P20023 (parent)
chain: MGAAGLLGVFLALVAPGVLGISCGSPPPILNGRISYYSTPIAVGTVIRYSCSGTFRLIGEKSLLCITKDKVDGTWDKPAPKCEYFNKYSSCPEPIVPGGYKIRGSTPYRHGDSVTFACKTNFSMNGNKSVWCQANNMWGPTRLPTCVSVFPLECPALPMIHNGHHTSENVGSIAPGLSVTYSCESGYLLVGEKIINCLSSGKWSAVPPTCEEARCKSLGRFPNGKVKEPPILRVGVTANFFCDEGYRLQGPPSSRCVIAGQGVAWTKMPVCEEIFCPSPPPILNGRHIGNSLANVSYGSIVTYTCDPDPEEGVNFILIGESTLRCTVDSQKTGTWSGPAPRCELSTSAVQCPHPQILRGRMVSGQKDRYTYNDTVIFACMFGFTLKGSKQIRCNAQGTWEPSAPVCEKECQAPPNILNGQKEDRHMVRFDPGTSIKYSCNPGYVLVGEESIQCTSEGVWTPPVPQCKVAACEATGRQLLTKPQHQFVRPDVNSSCGEGYKLSGSVYQECQGTIPWFMEIRLCKEITCPPPPVIYNGAHTGSSLEDFPYGTTVTYTCNPGPERGVEFSLIGESTIRCTSNDQERGTWSGPAPLCKLSLLAVQCSHVHIANGYKISGKEAPYFYNDTVTFKCYSGFTLKGSSQIRCKADNTWDPEIPVCEKETCQHVRQSLQELPAGSRVELVNTSCQDGYQLTGHAYQMCQDAENGIWFKKIPLCKVIHCHPPPVIVNGKHTGMMAENFLYGNEVSYECDQGFYLLGEKKLQCRSDSKGHGSWSGPSPQCLRSPPVTRCPNPEVKHGYKLNKTHSAYSHNDIVYVDCNPGFIMNGSRVIRCHTDNTWVPGVPTCIKKAFIGCPPPPKTPNGNHTGGNIARFSPGMSILYSCDQGYLLVGEALLLCTHEGTWSQPAPHCKEVNCSSPADMDGIQKGLEPRKMYQYGAVVTLECEDGYMLEGSPQSQCQSDHQWNPPLAVCRSRSLAPVLCGIAAGLILLTFLIVITLYVISKHRARNYYTDTSQKEAFHLEAREVYSVDPYNPAS

Variants of: B1
Details: with co3_human C3, P01024
Chain of co3_human C3, P01024 (P01024 whole entry): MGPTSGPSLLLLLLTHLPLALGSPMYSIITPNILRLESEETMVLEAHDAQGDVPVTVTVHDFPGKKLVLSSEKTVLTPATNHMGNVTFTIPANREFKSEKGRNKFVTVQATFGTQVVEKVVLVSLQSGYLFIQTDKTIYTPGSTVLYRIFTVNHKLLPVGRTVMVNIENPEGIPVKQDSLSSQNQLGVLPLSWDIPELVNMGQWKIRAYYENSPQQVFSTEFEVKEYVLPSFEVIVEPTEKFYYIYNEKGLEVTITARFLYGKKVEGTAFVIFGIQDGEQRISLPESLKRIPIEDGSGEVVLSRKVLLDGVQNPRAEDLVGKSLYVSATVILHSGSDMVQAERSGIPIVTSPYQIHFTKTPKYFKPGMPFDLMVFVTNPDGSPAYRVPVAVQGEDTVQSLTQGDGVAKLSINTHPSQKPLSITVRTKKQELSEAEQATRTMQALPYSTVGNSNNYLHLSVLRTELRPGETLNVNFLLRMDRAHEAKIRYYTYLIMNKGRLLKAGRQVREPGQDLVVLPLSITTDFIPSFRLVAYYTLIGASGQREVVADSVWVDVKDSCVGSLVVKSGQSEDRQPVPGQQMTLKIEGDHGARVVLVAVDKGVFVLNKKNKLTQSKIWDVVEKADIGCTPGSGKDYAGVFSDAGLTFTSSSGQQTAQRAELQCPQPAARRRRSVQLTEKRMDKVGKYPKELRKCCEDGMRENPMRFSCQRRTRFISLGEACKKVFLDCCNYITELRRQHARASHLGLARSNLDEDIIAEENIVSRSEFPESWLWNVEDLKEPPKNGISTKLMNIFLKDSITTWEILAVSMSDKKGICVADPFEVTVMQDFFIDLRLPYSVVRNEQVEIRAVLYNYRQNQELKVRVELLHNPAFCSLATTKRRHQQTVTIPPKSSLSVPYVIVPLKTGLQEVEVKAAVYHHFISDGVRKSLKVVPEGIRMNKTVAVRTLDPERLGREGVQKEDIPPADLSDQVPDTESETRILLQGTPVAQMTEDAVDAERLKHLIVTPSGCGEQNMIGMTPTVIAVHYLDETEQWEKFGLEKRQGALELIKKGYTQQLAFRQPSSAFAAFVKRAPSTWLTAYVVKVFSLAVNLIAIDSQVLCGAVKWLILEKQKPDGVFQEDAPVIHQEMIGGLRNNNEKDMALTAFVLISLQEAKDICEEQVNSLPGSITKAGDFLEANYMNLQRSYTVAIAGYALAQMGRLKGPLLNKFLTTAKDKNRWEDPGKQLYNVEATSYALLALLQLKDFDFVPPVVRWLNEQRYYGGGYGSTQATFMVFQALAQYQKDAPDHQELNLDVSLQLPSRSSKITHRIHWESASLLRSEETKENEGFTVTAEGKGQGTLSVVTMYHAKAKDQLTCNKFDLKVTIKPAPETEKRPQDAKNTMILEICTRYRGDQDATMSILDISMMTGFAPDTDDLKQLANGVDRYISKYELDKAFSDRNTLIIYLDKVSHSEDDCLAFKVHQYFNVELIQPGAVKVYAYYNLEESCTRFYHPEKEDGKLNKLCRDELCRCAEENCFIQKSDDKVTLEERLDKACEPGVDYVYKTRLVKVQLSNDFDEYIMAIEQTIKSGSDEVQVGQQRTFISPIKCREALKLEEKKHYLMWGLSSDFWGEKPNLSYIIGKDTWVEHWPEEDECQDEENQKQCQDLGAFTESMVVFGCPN

Effect of a mutation on the interaction, decreasing interaction:
D112A
K128A
R103A
